Data set [1] deals with the molecule itself. The data set can be described thus: X-ray crystallography (self-association in the crystal). On the procedure: Well ordered crystals were formed in solutions containing 15 mg/ml PhyB, 1.2 M MgSO₄, 4% glycerol, 1% poly(ethylene glycol) 3350, and 100 mM BisTris(HCl) (pH 5.5). Crystals were exchanged into 100 mM MgSO₄, 25% poly(ethylene glycol) 3350, 15% poly(ethylene glycol) 550 monomethyl ether, and 100 mM BisTris (pH 5.5), and flash cooled in liquid nitrogen. Final datasets were collected at the Life Sciences Collaborative Access Team at the Advanced Photon Source (Argonne, Ill.), and indexed, integrated, and scaled using HKL2000 (Otwinowski et al., Method Enzymol. 276-307-326 (1997)). Initial phases were calculated by PHASER (McCoy et al., J. Appl. Crystallogr 40:658-674 (2007)) using the PAS-GAF region of Syn-Cph1 as the search model (PDB 2VEA, (Essen et al., Proc. Natl. Acad. Sci. USA 105:14709-14714 (2008)). Manual model-building was conducted with COOT (Emlsey et al., Acta Crystallogr D Biol. Crystallogr 60:2126-2132 (2004)) and refined with PHENIX (McCoy et al., J. Appl. Crystallogr 40:658-674 (2007)) without real-space refinement and invoking non-crystallographic symmetry in torsion angle mode, and validated with MOLPROBITY (Chen et al., Acta Crystallogr D Biol. Crystallogr 66:12-21 (2010)). Superpositions were arranged with LSQKAB (Kabsch, Acta Crystallogr A 32:922-923 (1976)).

Data set [2] deals with the molecule itself. Briefly: equilibrium sedimentation (Pr) and size exclusion chromatography (Pr and Pfr); self-association. On the procedure:
FIG. 8A: Apparent size of PhyB(PSM) was measured by size exclusion chromatography (SEC) as either Pr (red circle) or following saturating red light irradiation (mostly Pfr) (purple circle). The column was calibrated with Bio-Rad size-exclusion protein standards and blue dextran (open circles). The partition coefficient, Kₐᵥ, was calculated using the equation, Kₐᵥ=(Vₑ−V₀)/(Vₜ−V₀), where Vₑ, V₀, and Vₜ are the elution, void and total volumes, respectively. V₀ and Vₜ were measured using blue dextran and vitamin B12. FIG. 8B: Equilibrium sedimentation was used to measure the mass of PhyB(PSM) as Pr using two concentrations and three rotor speeds. Lines represent global fits of the data. The calculated ratio of the measured molecular weight to that calculated from the sequence is shown.
Equilibrium sedimentation was conducted at 20° C. in darkness with Beckmann XL-A analytical ultracentrifuge and PhyB dissolved as Pr in SAB. SEC was conducted at 20° C. by FPLC (0.2 ml/min) with a 0.5×20 cm analytical grade Superdex 200 column (GE) equilibrated with SAB and 50 μl of either Pr samples or samples continuously irradiated with red light (mostly Pfr).
A general note: Size exclusion chromatography separates by hydrodynamic size, large species first.

This is an account of results in patent US20150307565A1 (WISCONSIN ALUMNI RESEARCH FOUNDATION, published 2015).

B1: Arabidopsis PhyB(90-624) biliprotein bearing a C-terminal SLHHHHHH tag, assembled with phytochromobilin (PΦB) (receptor, Arabidopsis thaliana)
chain: TTYGSSVPEQQITAYLSRIQRGGYIQPFGCMIAVDESSFRIIGYSENAREMLGIMPQSVPTLEKPEILAMGTDVRSLFTSSSSILLERAFVAREITLLNPVWIHSKNTGKPFYAILHRIDVGVVIDLEPARTEDPALSIAGAVQSQKLAVRAISQLQALPGGDIKLLCDTVVESVRDLTGYDRVMVYKFHEDEHGEVVAESKRDDLEPYIGLHYPATDIPQASRFLFKQNRVRMIVDCNATPVLVVQDDRLTQSMCLVGSTLRAPHGCHSQYMANMGSIASLAMAVIINGNEDDGSNVASGRSSMRLWGLVVCHHTSSRCIPFPLRYACEFLMQAFGLQLNMELQLALQMSEKRVLRTQTLLCDMLLRDSPAGIVTQSPSIMDLVKCDGAAFLYHGKYYPLGVAPSEVQIKDVVEWLLANHADSTGLSTDSLGDAGYPGAAALGDAVCGMAVAYITKRDFLFWFRSHTAKEIKWGGAKHHPEDKDDGQRMHPRSSFQAFLEVVKSRSQPWETAEMDAIHSLQLILRDSFKESEAASLHHHHHH
modifications: phytochromobilin (PΦB) attached by a thioether linkage to Cys-357
notes: Crystallized as Pr; Two subunits (A and B) form the crystal dimer; also called PDB 4OUR
Consider B1, for which, in data set [1], the binding result is recorded as “binds”.

B2: Arabidopsis PhyB PSM (residues 1-624) assembled with PΦB (receptor, Arabidopsis thaliana, UniProt P14713 1-624, looked up)
chain: MVSGVGGSGGGRGGGRGGEEEPSSSHTPNNRRGGEQAQSSGTKSLRPRSNTESMSKAIQQYTVDARLHAVFEQSGESGKSFDYSQSLKTTTYGSSVPEQQITAYLSRIQRGGYIQPFGCMIAVDESSFRIIGYSENAREMLGIMPQSVPTLEKPEILAMGTDVRSLFTSSSSILLERAFVAREITLLNPVWIHSKNTGKPFYAILHRIDVGVVIDLEPARTEDPALSIAGAVQSQKLAVRAISQLQALPGGDIKLLCDTVVESVRDLTGYDRVMVYKFHEDEHGEVVAESKRDDLEPYIGLHYPATDIPQASRFLFKQNRVRMIVDCNATPVLVVQDDRLTQSMCLVGSTLRAPHGCHSQYMANMGSIASLAMAVIINGNEDDGSNVASGRSSMRLWGLVVCHHTSSRCIPFPLRYACEFLMQAFGLQLNMELQLALQMSEKRVLRTQTLLCDMLLRDSPAGIVTQSPSIMDLVKCDGAAFLYHGKYYPLGVAPSEVQIKDVVEWLLANHADSTGLSTDSLGDAGYPGAAALGDAVCGMAVAYITKRDFLFWFRSHTAKEIKWGGAKHHPEDKDDGQRMHPRSSFQAFLEVVKSRSQPWETAEMDAIHSLQLILRDSFKESEAA
modifications: phytochromobilin (PΦB) attached by a thioether linkage to Cys-357
notes: Tested for self-association in solution as Pr (equilibrium sedimentation, SEC) and as mostly Pfr after red light (SEC); also called full PSM fragment; full-length PSM; not shown: 6His tag: the PSM constructs carried N- or C-terminal 6His tags (the N-terminal one is TEV-cleavable and leaves Gly-His)
As for B2, the binding result in data set [2] is given as “no binding”.
